Results reported in patent US20240384250A1, “FIBROBLAST GROWTH FACTOR 23 MODULATING COMPOUNDS” (THE UAB RESEARCH FOUNDATION, priority 2021, published 2024).

B1: sKL: recombinant soluble α-klotho ectodomain, mouse aa 35-982 and human aa 34-981, FLAG- or Strep/His-tagged, purified from HEK293 cells (protein)
chain: EPGDGAQTWARFSRPPAPEAAGLFQGTFPDGFLWAVGSAAYQTEGGWQQHGKGASIWDTFTHHPLAPPGDSRNASLPLGAPSPLQPATGDVASDSYNNVFRDTEALRELGVTHYRFSISWARVLPNGSAGVPNREGLRYYRRLLERLRELGVQPVVTLYHWDLPQRLQDAYGGWANRALADHFRDYAELCFRHFGGQVKYWITIDNPYVVAWHGYATGRLAPGIRGSPRLGYLVAHNLLLAHAKVWHLYNTSFRPTQGGQVSIALSSHWINPRRMTDHSIKECQKSLDFVLGWFAKPVFIDGDYPESMKNNLSSILPDFTESEKKFIKGTADFFALCFGPTLSFQLLDPHMKFRQLESPNLRQLLSWIDLEFNHPQIFIVENGWFVSGTTKRDDAKYMYYLKKFIMETLKAIKLDGVDVIGYTAWSLMDGFEWHRGYSIRRGLFYVDFLSQDKMLLPKSSALFYQKLIEKNGFPPLPENQPLEGTFPCDFAWGVVDNYIQVDTTLSQFTDLNVYLWDVHHSKRLIKVDGVVTKKRKSYCVDFAAIQPQIALLQEMHVTHFRFSLDWALILPLGNQSQVNHTILQYYRCMASELVRVNITPVVALWQPMAPNQGLPRLLARQGAWENPYTALAFAEYARLCFQELGHHVKLWITMNEPYTRNMTYSAGHNLLKAHALAWHVYNEKFRHAQNGKISIALQADWIEPACPFSQKDKEVAERVLEFDIGWLAEPIFGSGDYPWVMRDWLNQRNNFLLPYFTEDEKKLIQGTFDFLALSHYTTILVDSEKEDPIKYNDYLEVQEMTDITWLNSPSQVAVVPWGLRKVLNWLKFKYGDLPMYIISNGIDDGLHAEDDQLRVYYMQNYINEALKAHILDGINLCGYFAYSFNDRTAPRFGLYRYAADQFEPKASMKHYRKIIDSNGFPGPETLERFCPEEFTVCTECSFFHTRKS
modifications: left off: small tags and cut ends
notes: recombinant soluble α-klotho ectodomain, mouse aa 35-982 and human aa 34-981, FLAG- or Strep/His-tagged, purified from HEK293 cells
B2: FGF23: recombinant fibroblast growth factor 23 protein from R&D Systems (protein)
chain: YPDTSPLLGSNWGSLTHLYTATARTSYHLQIHRDGHVDGTPHQTIYSALMITSEDAGSVVITGAMTRRFLCMDLHGNIFGSLHFSPENCKFRQWTLENGYDVYLSQKHHYLVSLGRAKRIFQPGTNPPPFSQFLARRNEVPLLHFYTVRPRRHTRSAEDPPERDPLNVLKPRPRATPVPVSCSRELPSAEEGGPAASDPLGVLRRGRGDARGGAGGADRCRPFPRFV

Assays:
FGFR2c = target: T1, FGFR2c (Homo sapiens, UniProt P21802); experiment: Pull-down of FLAG-sKL with Fc-tagged FGFR on protein A/G beads, absence of FGF23; format: binding
T1 construct: Fc-coupled FGFR ectodomains were immobilized on protein A/G beads; purchased R&D Systems 712FR050
T1 sequence (P21802 22-377 limits assumed): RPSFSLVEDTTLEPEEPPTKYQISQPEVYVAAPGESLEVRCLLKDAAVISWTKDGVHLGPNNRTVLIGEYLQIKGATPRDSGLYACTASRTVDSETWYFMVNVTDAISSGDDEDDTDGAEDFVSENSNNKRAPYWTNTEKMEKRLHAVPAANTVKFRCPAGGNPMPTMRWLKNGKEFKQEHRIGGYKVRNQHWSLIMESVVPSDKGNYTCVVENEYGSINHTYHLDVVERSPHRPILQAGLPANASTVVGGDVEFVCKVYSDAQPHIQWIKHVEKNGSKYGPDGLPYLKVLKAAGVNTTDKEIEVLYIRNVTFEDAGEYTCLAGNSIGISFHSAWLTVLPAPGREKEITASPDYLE
Method: (§1) To study the interaction between Fc-tagged FGFR isoforms (Fc-FGFR), FGF isoforms, and sKL, immunoprecipitation studies were conducted. Protein A beads (6501, BioVision) and protein G beads (6511, BioVision) were used at 25 μl of a 50% stock slurry per sample in a total bead volume of 50 μl. Beads were washed 5× in activity buffer (50 mM Tris [pH 7.4], 200 mM NaCl, 0.01% Tween 20). Bead spin-down assays were all performed for 2 minutes at 5000 g. Beads were resuspended in 1 ml of activity buffer in a 1.5-ml snap cap tube. One microgram of Fc-FGFR1 to 4 was incubated with the beads for 1 hour on a bead rotator. Control samples were incubated with 2 μg of anti-FGF antibody instead of Fc-FGFR. Beads were then pelleted at 5000 g for 2 minutes and washed 5× with activity buffer. Beads were resuspended and incubated with different combinations of 500 ng of FGF, 1 μg of sKL, 1.6 United States Pharmacopeia (USP) units of heparin, or phosphate-buffered saline (PBS). Beads were incubated for 1 hour on a tube rotator, and beads were pelleted and washed as before. One hundred microliters of 1× Laemmli sample buffer (1610737, Bio-Rad) with 1.42 M 2-mercaptoethanol was added, and samples were boiled for 5 minutes. Samples were analyzed using SDS-PAGE and Western blotting.
(§2) The sample (20 μl) was loaded onto Mini-PROTEAN TGX Precast Gel 4-20% for experiments with <9 samples (4568094, Bio-Rad) or Criterion TGX Precast Gel 4-20% (5678094, Bio-Rad) for experiments with >9 samples. Gels were run in 1× Tris/Glycine/SDS buffer (1610732, Bio-Rad) at 150 V and stopped when the sample dye reached the end of the gel. Gels were removed and electrotransferred via a semi-dry cassette (1703940, Bio-Rad) in I× Tris/Glycine buffer (1610734, Bio-Rad) with 20% methanol. Gels were transferred onto polyvinylidene diflouride membranes (IPVH00010, Millipore) at 20 V for 1 hour. Membranes were then blocked in 5% dried milk with 0.5% Tween 20 diluted in Tris-buffered saline (TBST; pH 7.5) for 1 hour and probed with antibodies against specific antigens at 1:1000 in TBST with 5% dried milk. Blots were washed 3× for 5 minutes in TBST and probed with HRP-coupled secondary antibodies against specific species at 1:10,000 in TBST with 5% dried milk. Membranes were imaged on the SRX-101A X-ray film developer (Konica Minolta).

[1] = tested on: FGF1, FGF2, FGF7, FGF19, FGF21; experiment: Plate-based binding assay, other FGF isoforms coated, FLAG-sKL detected with anti-FLAG HRP; parameters: species or system human; conditions: 10 ng FGF coated, 40 ng FLAG-sKL
Method: Proteins were coated on 96-well plates (MaxiSorp; 439454, Thermo Fisher Scientific), and proteins were added to wells in 100 μl of enzyme-linked immunosorbent assay (ELISA) coating buffer (E107, Bethyl Laboratories) with a lid placed overtop and incubated at 4° C. overnight. Plates were washed 5× with 350 μl of assay buffer (50 mM Tris [pH 7.4], 200 mM NaCl, 0.01% Tween 20) on a 50 TS microplate washer (BioTek). Plates were blocked for 1 hour in 200 μl of assay buffer with 0.5% BSA. Plates were washed as before, and proteins were incubated on plates in 100 μl of assay buffer with 0.5% BSA. Proteins or heparin was incubated in orders described in the respective figure legends. Assays using FLAG-tag-based detection were incubated with anti-FLAG coupled to HRP at 1:20,000, and assays using Fc detection were incubated with anti-human Fc coupled to HRP at 1:10,000. […] Reactions were stopped with ELISA stop solution (E115, Bethyl Laboratories) and analyzed using the Synergy HI plate reader (BioTek) at 450 nm wavelength. […] As a control to remove background absorbance values, wells were coated with an equal amount of BSA to match the amount of protein coated in experimental wells and treated the same as experimental wells. […]

FGF23 and FGFR1c = experiment: sKL detection assay (FGF23 coated, Fc-FGFR1c detection); format: binding
Method: Commercially available ELISA plates (Maxisorp) are coated with 5 μg/ml of recombinant FGF23 protein (R&D Systems) and unspecific binding sites are blocked with BSA/Tween20. Wells are incubated with sKL in solution (which can be plasma, serum or cell culture supernatants) for one hour, washed and incubated for one hour with 750 ng/ml of recombinant FGFR1α(IIIc)-Fc (R&D Systems), which is a chimeric protein consisting of the FGFR1 ectodomain and the Fc region of a human IgG. FGFR1 only binds to FGF23 in the presence of sKL, and the formation of this trimeric sandwich complex is then measured by detecting the presence of the Fc domain that is coupled to FGFR1. To do so, wells are washed and incubated with 400 ng/ml of anti-human IgG conjugated to horseradish peroxidase (HRP; Promega). Wells are washed and incubated with HRP substrate. After development for about 30 minutes, reactions are analyzed on a standard plate reader via absorptions at […]. Incubations with recombinant sKL dissolved in PBS at defined concentrations serve as standards that are used as reference values to determine sKL concentrations in the studied human samples. […]
HEK293 cells were plated in 10 cm dishes supplemented with 10% FBS (26140079, Gibco) and I× Pen/Strep (15140122, Gibco). Cells were transfected with appropriate klotho or green fluorescent protein cDNA constructs. After 2 days, clones were selected by using 1 μg/ml of puromycin (A1113803, Gibco). Cells were then split and plated in 10 cm dishes in DMEM supplemented with FBS and puromycin. After 48 hours, cells were lysed in 1 ml of RIPA buffer with the addition of a protease inhibitor (11873580001, Roche) for 30 minutes. The mixture was then centrifuged at 20,000 g for 1 hour to remove all cell debris. Activity assay was run as above in the sKL halflife study. Instead of serum, 20 μl of the indicated cell lysate was used and combined with 80 μl of activity assay buffer.

FGF23 binding to FGFR2c = target: T2, FGF23 binding to FGFR2c (Homo sapiens, UniProt P21802); experiment: Pull-down of FGF23 with Fc-FGFR on protein A/G beads with sKL, heparin or PBS; conditions: with heparin, or alone
T2 construct: Fc-coupled FGFR ectodomains were immobilized on protein A/G beads; purchased R&D Systems 2604FG025/CF or 2629FG025/CF; 712FR050
T2 sequence (P21802 22-377 limits assumed): as above
Method: as §1, §2

Row | Molecule | sKL binding to FGFR2c (FGFR2c) | binding of FLAG-sKL to other coated FGF isoforms [1] | binding in the sKL detection assay, total cell lysates (FGF23 and FGFR1c; lysates of stably transfected HEK293T cells) | binding activity relative to Com.sKL (FGF23 and FGFR1c; purified proteins) | FGF23 co-precipitation with Fc-FGFR2c (FGF23 binding to FGFR2c)
1 | B1 | no sKL binding | not observed | strong signal | approximately 7 × | –
2 | B2 | – | – | – | – | no FGF23 binding was detected
